# In US20150086555A1:
# Columns and labels:
# Conditions in all cases: remark: other sources report otherwise
# [1] = biological target: recombinant homotrimeric HA A/duck/Yangzhou/02/05 H8N4 (Influenza A virus A/duck/Yangzhou/02/2005(H8N4)); experiment: protein microarray, purified IgG, trimeric HA
# [2] = biological target: recombinant homotrimeric HA A/swine/Ontario/01911-2/99 H4N6 (Influenza A virus A/Swine/Ontario/01911-2/99 (H4N6)); experiment: protein microarray, purified IgG, trimeric HA
# [3] = biological target: recombinant soluble homotrimeric HA of A/Egypt/3300-NAMRU3/08 (H5N1) (Influenza A virus A/Egypt/3300-NAMRU3/2008(H5N1)); experiment: HA microarray, BCC supernatant
# [4] = biological target: recombinant soluble homotrimeric HA, A/Anhui/1/05 H5N1 (Influenza A virus A/Anhui/1/2005(H5N1)); experiment: microarray, transfection SN IgG, trimeric HA
# [5] = biological target: recombinant soluble homotrimeric HA, A/California/4/09 H1N1 (Influenza A virus A/California/04/2009(H1N1)); experiment: microarray, transfection SN IgG, trimeric HA
# [6] = biological target: recombinant soluble homotrimeric HA, A/Egypt/3300-NAMRU3/08 H5N1 (Influenza A virus A/Egypt/3300-NAMRU3/2008(H5N1)); experiment: microarray, transfection SN IgG, trimeric HA
# [7] = biological target: recombinant soluble homotrimeric HA, A/Hong Kong/156/97 H5N1 (Influenza A virus A/Hong Kong/156/97 (H5N1)); experiment: microarray, transfection SN IgG, trimeric HA
# [8] = biological target: recombinant soluble homotrimeric HA, A/Indonesia/5/05 H5N1 (Influenza A virus A/Indonesia/5/2005(H5N1)); experiment: microarray, transfection SN IgG, trimeric HA
# [9] = biological target: recombinant soluble homotrimeric HA, A/Japan/305/57 H2N2 (Influenza A virus A/Japan/305/1957(H2N2)); experiment: microarray, transfection SN IgG, trimeric HA
# [10] = biological target: recombinant soluble homotrimeric HA, A/Solomon Islands/3/06 H1N1 (Influenza A virus A/Solomon Islands/3/2006(H1N1)); experiment: microarray, transfection SN IgG, trimeric HA
# [11] = biological target: recombinant soluble homotrimeric HA, A/South Carolina/1/18 H1N1 (Influenza A virus A/South Carolina/1/18 (H1N1)); experiment: microarray, transfection SN IgG, trimeric HA
# [12] = biological target: recombinant soluble homotrimeric HA, A/Vietnam/1203/04 H5N1 (Influenza A virus A/VietNam/1203/2004(H5N1)); experiment: microarray, transfection SN IgG, trimeric HA
# [13] = biological target: recombinant soluble homotrimeric HA, A/Wisconsin/67/05 H3N2 (Influenza A virus A/Wisconsin/67/2005(H3N2)); experiment: microarray, transfection SN IgG, trimeric HA
# [14] = biological target: recombinant soluble homotrimeric HA, A/chicken/Vietnam/NCVD-016/08 H5N1 (Influenza A virus A/chicken/Vietnam/NCVD-016/2008(H5N1)); experiment: microarray, transfection SN IgG, trimeric HA
# [15] = biological target: recombinant soluble homotrimeric HA, A/duck/Yangzhou/02/05 H8N4 (Influenza A virus A/duck/Yangzhou/02/2005(H8N4)); experiment: microarray, transfection SN IgG, trimeric HA
# [16] = biological target: recombinant soluble homotrimeric HA, A/northern shoveler/California/HKWF115/07 H6N4 (Influenza A virus A/northern shoveler/California/HKWF115/2007(H6N1)); experiment: microarray, transfection SN IgG, trimeric HA
binder,measurement,setting,value
"TCN-536 (5095_N01) (antibody, V domains shown) VH: QVQLQQWGAGLLKPSETLSLTCAVYGGSFSVSGYYWSWIRQPPGRGLEWIGEISHGGSTNYNPSLKSRVTISVDTTKNQFSLRLSSVTAADTAVYYCARGTDPDTEVYCRVGNCAAFDYWGQGSLVTVSS VL: EIILAQSPGTLSLSPGERATLSCRASQFVSTRSLAWYQQRPGQAPRLLIYGASSRATGIPDRFSGSGSGTDFTLTISRLEPEDFAVYYCQHYGYSPRYAFGQGSKVEIK",Trimeric HA Binding: RLU,[1],251 RLU
same,Trimeric HA Binding: RLU,[2],126 RLU
"TCN-553 (5261_C18) (antibody, V domains shown) VH: QVQVVQSGTEVKKPGSSVKVSCQTSGGRFMSYAITWVRQAPGQGLEWMGGIVPVFGTANYAQKFQGRVTITTDDSTRTAYMELSSLRSEDTAVYYCGFRYGSGYGFDSWGQGTLVTVSS VL: EIVLTQSPGTLSLSPGERATLSCRASQSVSSSYLAWYQKKPGQAPRLLIYGASTRATGIPDRFTGSGSGTDFTLSISRLEPEDFAVYYCQHFGTSVFTFGGGTKVEIK",Trimeric HA Binding: RLU,[3],18800 RLU
same,Trimeric HA Binding: RLU,[4],8550 RLU
same,Trimeric HA Binding: RLU,[5],23300 RLU
same,Trimeric HA Binding: RLU,[6],19500 RLU
same,Trimeric HA Binding: RLU,[7],36300 RLU
same,Trimeric HA Binding: RLU,[8],31200 RLU
same,Trimeric HA Binding: RLU,[9],39800 RLU
same,Trimeric HA Binding: RLU,[10],49600 RLU
same,Trimeric HA Binding: RLU,[11],41300 RLU
same,Trimeric HA Binding: RLU,[12],19200 RLU
same,Trimeric HA Binding: RLU,[13],25200 RLU
same,Trimeric HA Binding: RLU,[14],34700 RLU
same,Trimeric HA Binding: RLU,[15],12500 RLU
same,Trimeric HA Binding: RLU,[16],32500 RLU
"TCN-546 (5089_L08) (antibody, V domains shown) VH: QVQLQQWGAGLLKPSETLSLTCGVYGGSLSDYYWSWIRQPPGKGLEWIGEINHSGGTNYNPSLKRRVTISVDTSKKQFSLKMNSVTAADTAVYYCARGTDPDTEVYCRAGNCAAFDFWGQGTLVTVSS VL: EIVLTQSPGTLSLSPGERATLSCRASHFVIGRAVAWYQQKPGQAPRLLIYGASSRATGIPDRFSGSGSGTDFTLTISRLETEDFAVFYCQHYGSSPRYAFGQGTKLEIK",Trimeric HA Binding: RLU,[1],211 RLU
"TCN-543 (5081_G23) (antibody, V domains shown) VH: QVHLVQSGAEVRKPGDSVKVSCKTSGYTFSTYPVAWVRQVPGQGLEWMGWISTYNGNTNFAQNFQGRVTLTTDTTTNTAYMEVRSLKFDDTAVYYCARVEGSYRDFWNNQNRFDPWGQGTLVTVSS VL: SYVLTQPPSVSVAPGQTARISCGGSNIGGKSVHWYQQKPGQAPVLVVYDDSGRPSGIPERFSGSNSGDTATLTISRVEAGDEADYFCQVWDNFGGVFGTGTKVTVL",Trimeric HA Binding: RLU,[1],119 RLU
same,Trimeric HA Binding: RLU,[2],169 RLU
"TCN-550 (5096_F06) (antibody, V domains shown) VH: QVQLQESGPGLVKPSETLSLTCTVSGASINSHYWSWIRQPPGKGLEWIGYVYYSGSTTYNPSLKSRVTLSVDTSKNQFSLNLSSVTAADTAFYYCARHPYDVLTGSGDWFDPWGQGTLVTVSS VL: SYVLTQAPSVSVAPGQTARITCGGNAIGSKKVHWYQHKAGQAPVLVVYDDTDRPSGIPERFSGSNSWSTATLTINRVEAGDEADYYCQVWDFTIDHVVFGGGTKLTVL",Trimeric HA Binding: RLU,[4],7680 RLU
same,Trimeric HA Binding: RLU,[5],628 RLU
same,Trimeric HA Binding: RLU,[6],26800 RLU
same,Trimeric HA Binding: RLU,[7],955 RLU
same,Trimeric HA Binding: RLU,[8],9000 RLU
same,Trimeric HA Binding: RLU,[9],731 RLU
same,Trimeric HA Binding: RLU,[10],758 RLU
same,Trimeric HA Binding: RLU,[11],1010 RLU
same,Trimeric HA Binding: RLU,[12],41900 RLU
same,Trimeric HA Binding: RLU,[13],37800 RLU
same,Trimeric HA Binding: RLU,[14],1800 RLU
same,Trimeric HA Binding: RLU,[15],4710 RLU
same,Trimeric HA Binding: RLU,[16],2300 RLU
same,Trimeric HA Binding: RLU,[1],256 RLU
"TCN-552 (5249_I23) (antibody, V domains shown) VH: QVQVVQSGAEVKKPGSSVRVSCQASGGTFMNYAIIWVRRAPGQGLEWMGGIIPVFPTPNYAQMFQGRVTISTDESRSTSFLELTNLRYEDTAVYYCARRIYHGGNSGFDFWGQGTLVTVSS VL: EIVLTQSPATLSLSPGERATLSCRASQSVGNYLAWYQQKPGQAPRLLIYDSSNRAPGIPARFSGSGSGTDFTLTISSLAPEDFAVYYCQQRSKWPPMYSFGHGTKLEIK",Trimeric HA Binding: RLU,[3],40000 RLU
same,Trimeric HA Binding: RLU,[4],9010 RLU
same,Trimeric HA Binding: RLU,[5],23500 RLU
same,Trimeric HA Binding: RLU,[6],21200 RLU
same,Trimeric HA Binding: RLU,[7],36300 RLU
same,Trimeric HA Binding: RLU,[8],43400 RLU
same,Trimeric HA Binding: RLU,[9],52000 RLU
same,Trimeric HA Binding: RLU,[10],48600 RLU
same,Trimeric HA Binding: RLU,[11],37400 RLU
same,Trimeric HA Binding: RLU,[12],18500 RLU
same,Trimeric HA Binding: RLU,[13],18500 RLU
same,Trimeric HA Binding: RLU,[14],34500 RLU
same,Trimeric HA Binding: RLU,[15],15900 RLU
same,Trimeric HA Binding: RLU,[16],43900 RLU
"TCN-535 (5246_P19) (antibody, V domains shown) VH: QVQLVQSGSEVKKPGTSVKVSCTASGSVFTNYGISWVRQAPGQGLEWMGGIIPLFGAAKYAQKFQGRVTITADESTKTVYMELSRLTSKDTAIYFCAKAPRVYEYYFDQWGQGTPVTVSS VL: EIVLTQSPGTLSLSPGERATLSCRASQSVSSSQLAWYQQKPGQAPRLIIYGASTRATGIPDRFSGSGSGTDFTLTIGRLEPEDFAVFFCQQYSTSPPTFGQGTKVDFK",Trimeric HA Binding: RLU,[3],39400 RLU
"TCN-540 (5060_F05) (antibody, V domains shown) VH: QVQLVQSGGGVVQPGRSLRLSCAASGFTFSSYAMHWVRQAPGKGLEWVAIISYDGNDQYYTDSVKGRFTISRDSSKVYLQMHRLRPEDTAVYYCAKEFETSGYFHGSFDYWGQGILVTVSS VL: QSALTQPASVSGSPGQSITISCTGTSSDVGGYNYVSWYQQHPGKAPKLLIYEVTNWPSGVSNRFSGSKSGNTASLTISGLQAEDEADYYCSSYAGSSTWVFGGGTRVTVL",Trimeric HA Binding: RLU,[3],1970 RLU
same,Trimeric HA Binding: RLU,[1],318 RLU
same,Trimeric HA Binding: RLU,[2],138 RLU
"TCN-538 (3206_O17) (antibody, V domains shown) VH: QITLKESGPTLVKPTQTLTLTCVFSGFSLSITGVRVGWIRQPPGKALEWLALISWDDEKHYSPSLQSRLTITKDTSKNQVVLTMTNLDPVDTATYYCARSTDRGHVLRYFGWMLPGDAFDVWGQGTMVTVSS VL: DIVMTQSPDFLPVSLGERATINCKSSQRVLYSSNNKNYLAWYQLKPGQPPKLIIYWASTRESGVPDRFSGSGSGTEFTLTISSLQAEDVAVYYCQQYYSRPYTFGQGTKLEIK",Trimeric HA Binding: RLU,[3],23600 RLU
"TCN-530 (5248_H10a) (antibody, V domains shown) VH: QVQLVQSGAEVRKPGSSVKVSCKASGGPFMSYAIGWVRQAPGQGLEWMGGINPVFGRPHYAQKFQGRVTIATDDSTKTSYMELSSLTSEDTGMYYCASRYSRSSPGTFESWGQGTLVTVSS VL: EIVMTQFPATLSVSPGERVTLSCRASQSVSNNLAWYQQKPGQPPRLLIYDASTRATGVPAKFSGTGSGTEFTLSISSLQSEDFAVYYCQQYHNWPPSYSFGLGTKLEIK",Trimeric HA Binding: RLU,[3],30400 RLU
same,Trimeric HA Binding: RLU,[1],158 RLU
same,Trimeric HA Binding: RLU,[2],139 RLU
"TCN-539 (5056_A08) (antibody, V domains shown) VH: QVQLVESGGGVVQPGRSLRLSCAASEITFITYAMHWVRQAPGKGLEWVALISDDGSNKFYADSVKGRFTISRDNSKNTLYLQMNSLRAEDTAAYYCAREGVYFDSGTYRGYFDYWGQETLVTVSS VL: EIVLTQSPATLSLSPGERATLSCRASQSVSSYLAWYQQKPGQAPRLLIYDASNRATGIPARFSGSGSGTDFTLTISSLEPEDFAVYYCQQRSHWPPITFGQGTRLEIK",Trimeric HA Binding: RLU,[3],11400 RLU
same,Trimeric HA Binding: RLU,[1],124 RLU
"TCN-534 (5249_B02) (antibody, V domains shown) VH: QVQLVQSGAEVKKPGSSVKVSCRESGGTFNGYTITWVRQAPGQGLEWMGGIIPMMGTVNYAQKLQGRVTITTDYFTKTAYMDLNNLRSEDTAMYYCVKIRYTGQQLLWGQGTLVTVSS VL: DIQMTQSPSTLSASIGDRVTITCRASQSIASWLAWYQQKPGKAPKLLIYEAVNLESGVPSRFSGSGSGTDFTLTISSLQPDDFATYFCQHYGTISQTFGGGTKVEIK",Trimeric HA Binding: RLU,[3],41400 RLU
